Results from publication PMC3479203.

Target: C-terminal SPA-tagged RpoB fusion protein (B. subtilis) (UniProt P37870)
Test: affinity purification with mass spectrometry

Chain of UniProt P37870 (P37870 whole entry, the tested form may be a part): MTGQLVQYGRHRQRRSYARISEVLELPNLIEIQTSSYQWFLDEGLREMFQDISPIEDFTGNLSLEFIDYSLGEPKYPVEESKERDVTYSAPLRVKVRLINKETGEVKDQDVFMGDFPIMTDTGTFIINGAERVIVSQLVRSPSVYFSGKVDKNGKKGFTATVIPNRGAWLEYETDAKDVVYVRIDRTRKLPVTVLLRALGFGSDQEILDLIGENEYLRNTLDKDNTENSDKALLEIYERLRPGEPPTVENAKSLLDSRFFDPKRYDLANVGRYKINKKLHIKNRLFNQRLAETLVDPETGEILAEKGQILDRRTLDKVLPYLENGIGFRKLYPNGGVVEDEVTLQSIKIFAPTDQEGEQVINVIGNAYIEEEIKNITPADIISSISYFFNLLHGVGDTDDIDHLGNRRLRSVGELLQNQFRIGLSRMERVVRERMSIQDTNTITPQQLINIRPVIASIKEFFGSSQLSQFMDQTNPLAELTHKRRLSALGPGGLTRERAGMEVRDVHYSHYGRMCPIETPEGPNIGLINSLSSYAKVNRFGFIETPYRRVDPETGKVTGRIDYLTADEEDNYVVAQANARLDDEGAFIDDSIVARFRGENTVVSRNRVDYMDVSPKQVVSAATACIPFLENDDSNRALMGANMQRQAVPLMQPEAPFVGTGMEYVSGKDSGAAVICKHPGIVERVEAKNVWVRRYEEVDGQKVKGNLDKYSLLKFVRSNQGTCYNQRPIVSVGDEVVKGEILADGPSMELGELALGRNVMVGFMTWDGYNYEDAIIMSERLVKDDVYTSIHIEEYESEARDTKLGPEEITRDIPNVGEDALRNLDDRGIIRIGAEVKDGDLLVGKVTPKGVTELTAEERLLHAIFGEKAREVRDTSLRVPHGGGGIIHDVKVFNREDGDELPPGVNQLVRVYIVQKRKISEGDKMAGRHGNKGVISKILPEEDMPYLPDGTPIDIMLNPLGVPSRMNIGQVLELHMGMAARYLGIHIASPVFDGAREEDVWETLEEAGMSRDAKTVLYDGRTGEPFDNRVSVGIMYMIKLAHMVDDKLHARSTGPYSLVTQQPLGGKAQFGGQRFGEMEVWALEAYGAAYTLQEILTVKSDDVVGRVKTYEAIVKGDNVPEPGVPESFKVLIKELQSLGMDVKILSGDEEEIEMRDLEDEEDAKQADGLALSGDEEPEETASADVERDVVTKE

relative fraction of RNAP bound to SigA, diamide stress [%] | relative fraction of RNAP bound to SigA, no stress [%] | relative fraction of RNAP bound to Spx, diamide stress [%] | relative fraction of RNAP bound to Spx, no stress [%] | Molecule
58.1 | 61.5 | – | – | SigA (43 kDa) (from UniProt P06224 1-371) (natural protein)
– | – | 21.6 | 11 | Spx (15 kDa) (natural protein) MVTLYTSPSCTSCRKARAWLEEHEIPFVERNIFSEPLSIDEIKQILRMTEDGTDEIISTRSKVFQKLNVNVESMPLQDLYRLINEHPGLLRRPIIIDEKRLQVGYNEDEIRRFLPRKVRSFQLREAQRLAN
